First the molecules themselves.
B1: SSoxy6 (peptide)
peptide: EYIQN[Dap]P[Aib]GS(glucose)-NH2
modifications: lactam 1-6
notes: Synthetic cyclic glycopeptide: Glu-Tyr-Ile-Gln-Asn-Dap-Pro-Aib-Gly-SerGlc-CONH2, cyclized AA1-AA6
B2: SSoxy3 (peptide)
peptide: DYIQN[Dap]P[Aib]S(glucose)-NH2
modifications: lactam 1-6
notes: Synthetic cyclic glycopeptide: Asp-Tyr-Ile-Gln-Asn-Dap-Pro-Aib-SerGlc-CONH2, cyclized AA1-AA6
B3: SSoxy5 (peptide)
peptide: EYIQN[Dap]P[Aib]S(glucose)-NH2
modifications: lactam 1-6
notes: Synthetic cyclic glycopeptide: Glu-Tyr-Ile-Gln-Asn-Dap-Pro-Aib-SerGlc-CONH2, cyclized AA1-AA6
B4: 2LS118-5 (peptide)
peptide: DYIQN[Dap]PLGS(glucose)-NH2
modifications: lactam 1-6
notes: Synthetic cyclic glycopeptide: Asp-Tyr-Ile-Gln-Asn-Dap-Pro-Leu-Gly-SerGlc-CONH2, cyclized AA1-AA6
B5: SSoxy2 (peptide)
peptide: DYIQN[Dap]PLGS(lactose)-NH2
modifications: lactam 1-6
notes: Synthetic cyclic glycopeptide: Asp-Tyr-Ile-Gln-Asn-Dap-Pro-Leu-Gly-SerLact-CONH2, cyclized AA1-AA6
B6: 2LS118-3 (peptide)
peptide: [Dap]YIQNDPLG-NH2
modifications: lactam 1-6; N-terminus assumed
SMILES: CC[C@H](C)[C@@H]1NC(=O)[C@H](Cc2ccc(O)cc2)NC(=O)[C@@H](N)CNC(=O)C[C@@H](C(=O)N2CCC[C@H]2C(=O)N[C@@H](CC(C)C)C(=O)NCC(N)=O)NC(=O)[C@H](CC(N)=O)NC(=O)[C@H](CCC(N)=O)NC1=O
B7: SSoxy1 (peptide)
peptide: DYIQN[Dap]PLS(lactose)-NH2
modifications: lactam 1-6
notes: Synthetic cyclic glycopeptide: Asp-Tyr-Ile-Gln-Asn-Dap-Pro-Leu-SerLact-CONH2, cyclized AA1-AA6
B8: 2LS118-6 (peptide)
peptide: DYIQN[Dap]PLGS(glucose)S(glucose)-NH2
modifications: lactam 1-6
notes: Synthetic cyclic glycopeptide: Asp-Tyr-Ile-Gln-Asn-Dap-Pro-Leu-Gly-(SerGlc)2-CONH2, cyclized AA1-AA6
B9: 2LS118-4 (peptide)
peptide: DYIQN[Dap]PLS(glucose)-NH2
modifications: lactam 1-6
notes: Synthetic cyclic glycopeptide: Asp-Tyr-Ile-Gln-Asn-Dap-Pro-Leu-SerGlc-CONH2, cyclized AA1-AA6; also called compound 2LS118-4
B10: 2LS118-1 (peptide)
peptide: DYIQN[Dap]PLG-NH2
modifications: lactam 1-6; N-terminus assumed
SMILES: CC[C@H](C)[C@@H]1NC(=O)[C@H](Cc2ccc(O)cc2)NC(=O)[C@@H](N)CC(=O)NC[C@@H](C(=O)N2CCC[C@H]2C(=O)N[C@@H](CC(C)C)C(=O)NCC(N)=O)NC(=O)[C@H](CC(N)=O)NC(=O)[C@H](CCC(N)=O)NC1=O
notes: Synthetic cyclic oxytocin analogue: Asp-Tyr-Ile-Gln-Asn-Dap-Pro-Leu-Gly-CONH2, cyclized AA1-AA6; also called compound 2LS118-1
B11: SSoxy4 (peptide)
peptide: EYIQN[Dap]PLS(glucose)-NH2
modifications: lactam 1-6
notes: Synthetic cyclic glycopeptide: Glu-Tyr-Ile-Gln-Asn-Dap-Pro-Leu-SerGlc-CONH2, cyclized AA1-AA6
B12: 2LS118-2 (peptide)
peptide: EYIQN[Dap]PLG-NH2
modifications: lactam 1-6; N-terminus assumed
SMILES: CC[C@H](C)[C@@H]1NC(=O)[C@H](Cc2ccc(O)cc2)NC(=O)[C@@H](N)CCC(=O)NC[C@@H](C(=O)N2CCC[C@H]2C(=O)N[C@@H](CC(C)C)C(=O)NCC(N)=O)NC(=O)[C@H](CC(N)=O)NC(=O)[C@H](CCC(N)=O)NC1=O
notes: Synthetic cyclic oxytocin analogue: Glu-Tyr-Ile-Gln-Asn-Dap-Pro-Leu-Gly-CONH2, cyclized AA1-AA6

Bridges are numbered along the chain shown (N, C = ends). Where no end group is shown, it is not given here. [ ]: non-standard residue; d: D form. glucose = glucose (covalently linked to the residue side chain); Dap = NC[C@H](N)C(=O)O; Aib = CC(C)(N)C(=O)O

T1 sequence (P35372 whole entry): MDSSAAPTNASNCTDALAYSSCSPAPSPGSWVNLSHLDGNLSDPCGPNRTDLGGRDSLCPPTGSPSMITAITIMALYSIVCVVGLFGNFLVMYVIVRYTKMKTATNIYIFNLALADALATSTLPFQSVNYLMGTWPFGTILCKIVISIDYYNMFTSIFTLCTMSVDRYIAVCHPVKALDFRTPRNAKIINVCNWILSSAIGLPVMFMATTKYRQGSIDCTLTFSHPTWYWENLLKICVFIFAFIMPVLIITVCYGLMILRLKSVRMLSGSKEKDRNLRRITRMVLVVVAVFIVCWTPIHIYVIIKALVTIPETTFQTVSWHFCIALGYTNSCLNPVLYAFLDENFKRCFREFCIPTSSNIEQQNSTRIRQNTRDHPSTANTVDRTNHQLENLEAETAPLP

This test concerns the target T1, human Mu Opioid Receptor (MOR) (human, UniProt P35372 1-400).
T1 construct: whole, on cells; also called MOR-CHO(PE)
Nature of the test: competition binding against [3H]diprenorphine on MOR-CHO(PE) membranes. As for the experimental part:
Competition Binding at MOR-CHO(PE) Presence of [3H]Diprenorphine: The compounds were also tested for off-target binding to the human Mu Opioid Receptor (MOR), also expressed in CHO cells. Briefly, the experiment involved: Protein: MOR-CHO(PE) Passage: 16; previously frozen cell pellets used and prepared. Protein 15 ug/well used. Serial dilution of compounds and Naloxone(control) used. Total binding absence of compound used, 10uM Naloxone used for nonspecific binding. Each well contained membrane 15 ug/well protein and 2.48 nM Radioligand final conc. Incubated 1 hour in R/T; harvested on GF/B filter, dried O/N. Data are normalized to % Specific binding. MOR-CHO(PE) cell Kd:5.27±2.39 nM. Data are expressed as mean of a single experiment, performed in triplicate. Vehicle contained 0.1% DMSO and 0.1% BSA. (Radioligand:#23067 Lot:2548344 NET: 1121250UC). Table 1 below also summarizes overall MOR binding profile of cyclic oligopeptides of the invention compared to naloxone.
Regarding B1, the IC50 is over 2500 nM and the Ki was over 2500 nM.
Take B2: the IC50 is over 2500 nM and the Ki was over 2500 nM.
In the case of B3, the IC50 was over 2500 nM and the inhibition constant (Ki) was over 2500 nM.
B4 yielded an IC50 of over 2500 nM and an inhibitory constant (Ki) of over 2500 nM.
In the case of B5, the half-maximal inhibitory concentration (IC50) is over 2500 nM and the Ki is over 2500 nM.
B6: the IC50 is over 2500 nM and the inhibition constant (Ki) was over 2500 nM.
As to B7, the IC50 is over 2500 nM and the Ki is over 2500 nM.
In turn, B8 registered a concentration for half-maximal inhibition (IC50) of over 2500 nM and an inhibition constant Ki of over 2500 nM.
B9 showed a concentration for half-maximal inhibition (IC50) of over 2500 nM and an inhibition constant (Ki) of over 2500 nM.
Consider B10, for which the IC50 was over 2500 nM and the Ki was over 2500 nM.
B11 yielded an IC50 of over 2500 nM and a Ki of over 2500 nM.
With B12, the half-maximal inhibitory concentration (IC50) is over 2500 nM and the Ki was over 2500 nM.

Usually IC50 stands for the midpoint of a concentration-inhibition curve. The low end stands for inhibition by little substance, the high end for a need for much substance. By Ki is commonly meant the equilibrium dissociation constant of an inhibitor or competing ligand from its target. A higher Ki goes with lower affinity.

Source of the values: patent publication US20230265124A1 (ARIZONA BOARD OF REGENTS ON BEHALF OF THE UNIVERSITY OF …, published 2023).
